Data: article PMC6008586, “Analysis of transition state mimicry by tight binding aminothiazoline inhibitors provides insight into catalysis by human O-GlcNAcase” (Chemical Science, 2016)

Columns and labels:
Test in all cases: Kinetic analysis of hOGA-catalysed hydrolysis of fluorogenic substrates
Assay type in all cases: biochemical, human
[1] = substrate: CNC(=O)N[C@H]1[C@H](Oc2ccc3c(C)cc(=O)oc3c2)O[C@H](CO)[C@@H](O)[C@@H]1O; details: other: estimated by non-linear regression, saturation of hOGA not observed, pH 7.4 PBS, 2.5% DMF, 37.0 °C
Excerpt: (§1) Given the greater than 100-fold increase in potency we observe for the 2′-aminothiazoline inhibitors over their thiazoline counterparts and their structural resemblance to the oxazoline intermediate found along the reaction coordinate of hOGA, we wanted to assess whether incorporation of the 2′-amino group benefitted binding through serendipitous interactions, or whether the presence of the charge included in this class of inhibitors also made them TS analogues. We therefore turned to using the Bartlett LFER approach. […] We started from 4-methylumbelliferyl 2-amino-2-deoxy-β-D-glucopyranoside hydrochloride (16) as a common intermediate.[54] Per-O-acetylated urea substrates 17a–e were prepared by reacting 16 with the appropriate alkylisocyanate in the presence of triethylamine, followed by Zemplen de-O-acetylation. With this series of substrates (18a–e) in hand we determined the kcat/Km values governing their hOGA catalyzed hydrolysis (ESI Table S1 ^†). […] In contrast, we find no correlation between log Ki values for the inhibitors and log Km values for the series of substrates (Fig. 6B). […]
(§2) Biological evaluation: Gene expression and protein purification. hOGA was expressed and purified according to the previously described procedure by Macauley et al.[5] hOGA was dialyzed twice against PBS buffer after purification and its concentration determined using the Nanodrop2000. Human β-hexosaminidase was obtained from Micheal Tropak at the Hospital for Sick Children in Toronto, without further purification.
(§3) Kinetic analysis of hOGA. All assays were carried out in 96 well plates (Thermoscientific, FloroNunc, lot # 139825) in PBS pH 7.4 buffer (0.03% BSA) in triplicate at 37°C for 20 minutes. A continuous assay procedure was performed in which the reactions were initiated by the addition of 4-MUGlcNAc substrate (50 µL or 100 µL via a multi-channel […]
(§4) The excitation and emission were 350 and 445 nm, respectively. The amount of fluorogenic substrate liberated was quantitatively assessed by using a standard curve for 4-methylumbelliferone under identical buffer conditions. A total of 6-8 inhibitor concentrations were tested, […]
(§5) The hOGA concentrations in the assays ranged from 0.8 nM to 20 nM, depending on whether the Ki being determined was through classic Michaelis-Menten methods or the Morrison Ki fit. For full Ki […]
(§6) For the Morrison Ki analyses, only one substrate concentration was used (at the Km) since the method of inhibition was already known from analysis using the Line-weaver Burke plots. The representative hOGA Ki plots are summarized in Supplemental Figures S1, S2 and S3. Kinetic analysis of substrates 18a-e were performed in triplicate using pH 7.4 PBS buffer (0.03% BSA) containing 2.5% DMF, with varying enzyme concentrations. The Michaelis-Menten curves for substrates 18a-e with hOGA are summarized in Supplemental Figure S6 and the kinetic parameters are described in Supplemental Table S1. […]
(§7) # 139825) at pH 4.25 (50 mM citrate, 100 mM NaCl, 0.03% BSA) at 37°C in triplicate for 20 minutes. Enzymatic reactions were triggered by addition of substrate (20 µL or 15 µL) in a total volume of 45 or 40 µL. Reactions were quenched by the addition of a 4-fold excess (160 or 180 µL) of quenching buffer (200 mM glycine, pH 10.75) in order to […]

[2] = substrate: CCNC(=O)N[C@H]1[C@H](Oc2ccc3c(C)cc(=O)oc3c2)O[C@H](CO)[C@@H](O)[C@@H]1O; details: other: substrate of hOGA, pH 7.4 PBS, 2.5% DMF, 37.0 °C
Excerpt: as §1, §2, §3, §4, §5, §6, §7

[3] = substrate: Cc1cc(=O)oc2cc(O[C@@H]3O[C@H](CO)[C@@H](O)[C@H](O)[C@H]3NC(N)=O)ccc12; details: other: estimated by non-linear regression, saturation of hOGA not observed, pH 7.4 PBS, 2.5% DMF, 37.0 °C
Excerpt: as §1, §2, §3, §4, §5, §6, §7

[4] = substrate: CCCNC(=O)N[C@H]1[C@H](Oc2ccc3c(C)cc(=O)oc3c2)O[C@H](CO)[C@@H](O)[C@@H]1O; details: other: substrate of hOGA, pH 7.4 PBS, 2.5% DMF, 37.0 °C
Excerpt: as §1, §2, §3, §4, §5, §6, §7

[5] = substrate: CCCCNC(=O)N[C@H]1[C@H](Oc2ccc3c(C)cc(=O)oc3c2)O[C@H](CO)[C@@H](O)[C@@H]1O; details: other: substrate of hOGA, pH 7.4 PBS, 2.5% DMF, 37.0 °C
Excerpt: as §1, §2, §3, §4, §5, §6, §7

B1: hOGA (Homo sapiens) (protein)
chain: MVQKESQATLEERESELSSNPAASAGASLEPPAAPAPGEDNPAGAGGAAVAGAAGGARRFLCGVVEGFYGRPWVMEQRKELFRRLQKWELNTYLYAPKDDYKHRMFWREMYSVEEAEQLMTLISAAREYEIEFIYAISPGLDITFSNPKEVSTLKRKLDQVSQFGCRSFALLFDDIDHNMCAADKEVFSSFAHAQVSITNEIYQYLGEPETFLFCPTEYCGTFCYPNVSQSPYLRTVGEKLLPGIEVLWTGPKVVSKEIPVESIEEVSKIIKRAPVIWDNIHANDYDQKRLFLGPYKGRSTELIPRLKGVLTNPNCEFEANYVAIHTLATWYKSNMNGVRKDVVMTDSEDSTVSIQIKLENEGSDEDIETDVLYSPQMALKLALTEWLQEFGVPHQYSSRQVAHSGAKASVVDGTPLVAAPSLNATTVVTTVYQEPIMSQGAALSGEPTTLTKEEEKKQPDEEPMDMVVEKQEETDHKNDNQILSEIVEAKMAEELKPMDTDKESIAESKSPEMSMQEDCISDIAPMQTDEQTNKEQFVPGPNEKPLYTAEPVTLEDLQLLADLFYLPYEHGPKGAQMLREFQWLRANSSVVSVNCKGKDSEKIEEWRSRAAKFEEMCGLVMGMFTRLSNCANRTILYDMYSYVWDIKSIMSMVKSFVQWLGCRSHSSAQFLIGDQEPWAFRGGLAGEFQRLLPIDGANDLFFQPPPLTPTSKVYTIRPYFPKDEASVYKICREMYDDGVGLPFQSQPDLIGDKLVGGLLSLSLDYCFVLEDEDGICGYALGTVDVTPFIKKCKISWIPFMQEKYTKPNGDKELSEAEKIMLSFHEEQEVLPETFLANFPSLIKMDIHKKVTDPSVAKSMMACLLSSLKANGSRGAFCEVRPDDKRILEFYSKLGCFEIAKMEGFPKDVVILGRSL
notes: made in house
Which results are given for B1?
Km [1]: 1825 ± 542 µM; Km [2]: 85 ± 20 µM; Km [3]: 1265 ± 259 µM; Km [4]: 120 ± 11 µM; Km [5]: 30 ± 3 µM
